According to US20240124528A1 (ACADEMIA SINICA, published 2024):
Numbering of substitutions follows the chain as printed. Numbers in names are those of the source.

How the values were obtained:
TAK1, endogenous = biological target: T1, TAK1, endogenous (human, UniProt O43318 1-606, limits assumed); experiment: co-IP with anti-Flag agarose, IL-17RB-KO BxPC3 cells, rIL-17B (FIG. 6G)
T1 sequence (looked up): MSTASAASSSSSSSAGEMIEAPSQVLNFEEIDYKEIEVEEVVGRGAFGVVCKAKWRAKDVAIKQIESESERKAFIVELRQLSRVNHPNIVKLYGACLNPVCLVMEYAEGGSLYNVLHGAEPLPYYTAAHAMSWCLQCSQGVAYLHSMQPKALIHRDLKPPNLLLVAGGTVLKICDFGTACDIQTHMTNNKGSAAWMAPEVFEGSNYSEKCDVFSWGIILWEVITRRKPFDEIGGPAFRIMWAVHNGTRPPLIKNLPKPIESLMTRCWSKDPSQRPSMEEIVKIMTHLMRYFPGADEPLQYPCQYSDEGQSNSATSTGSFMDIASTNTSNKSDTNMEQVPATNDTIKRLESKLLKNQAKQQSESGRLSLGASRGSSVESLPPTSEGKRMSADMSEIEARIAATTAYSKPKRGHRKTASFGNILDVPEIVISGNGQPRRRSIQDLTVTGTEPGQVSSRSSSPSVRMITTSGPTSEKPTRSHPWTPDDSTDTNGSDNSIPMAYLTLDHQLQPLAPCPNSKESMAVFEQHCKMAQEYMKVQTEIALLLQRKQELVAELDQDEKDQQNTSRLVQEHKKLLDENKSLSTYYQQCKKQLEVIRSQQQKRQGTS

ACT1, endogenous = biological target: T2, ACT1, endogenous (human, UniProt O43734 1-574, limits assumed); experiment: as above
T2 sequence (looked up): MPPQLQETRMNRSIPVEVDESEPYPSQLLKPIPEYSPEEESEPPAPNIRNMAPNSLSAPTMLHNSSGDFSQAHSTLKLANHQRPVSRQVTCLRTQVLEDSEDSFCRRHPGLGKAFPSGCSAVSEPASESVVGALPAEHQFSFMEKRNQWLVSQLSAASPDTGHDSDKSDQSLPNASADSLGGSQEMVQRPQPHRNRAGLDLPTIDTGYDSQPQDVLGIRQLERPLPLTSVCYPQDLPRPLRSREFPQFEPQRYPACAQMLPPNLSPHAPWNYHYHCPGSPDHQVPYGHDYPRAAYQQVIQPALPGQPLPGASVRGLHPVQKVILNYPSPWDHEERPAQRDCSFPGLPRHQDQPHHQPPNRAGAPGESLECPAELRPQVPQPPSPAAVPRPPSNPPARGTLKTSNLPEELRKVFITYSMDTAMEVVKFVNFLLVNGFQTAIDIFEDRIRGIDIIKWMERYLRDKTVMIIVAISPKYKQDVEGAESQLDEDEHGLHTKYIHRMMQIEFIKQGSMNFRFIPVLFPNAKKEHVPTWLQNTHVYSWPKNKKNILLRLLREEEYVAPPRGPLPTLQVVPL

TRAF6, endogenous = biological target: T3, TRAF6, endogenous (human, UniProt Q9Y4K3 1-522); experiment: as above
T3 sequence (looked up): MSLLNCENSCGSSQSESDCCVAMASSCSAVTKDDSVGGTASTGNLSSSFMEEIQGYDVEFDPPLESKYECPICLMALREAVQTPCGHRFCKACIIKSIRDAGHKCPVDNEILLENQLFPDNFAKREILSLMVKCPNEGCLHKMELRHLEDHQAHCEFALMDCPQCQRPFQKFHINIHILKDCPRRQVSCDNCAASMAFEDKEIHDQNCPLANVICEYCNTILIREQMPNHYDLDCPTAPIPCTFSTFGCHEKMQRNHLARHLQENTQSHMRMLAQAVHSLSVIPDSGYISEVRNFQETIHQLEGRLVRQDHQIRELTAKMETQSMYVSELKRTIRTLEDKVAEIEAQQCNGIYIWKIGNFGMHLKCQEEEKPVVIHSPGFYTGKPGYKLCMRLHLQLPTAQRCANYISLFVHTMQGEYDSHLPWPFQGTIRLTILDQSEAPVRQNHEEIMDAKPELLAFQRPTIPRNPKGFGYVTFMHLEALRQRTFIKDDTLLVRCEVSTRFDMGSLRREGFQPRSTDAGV

[1] = biological target: T4, IL-17RB-HA (C-terminally HA-tagged full-length IL-17RB, wild type) (human, UniProt Q9NRM6 18-502); experiment: co-IP with anti-HA beads, IL-17RB-KO BxPC3 cells, 50 ng/ml rIL-17B (FIG. 14B)
T4 construct: Full-length IL-17RB subcloned into pcDNA3.1, expressed in 293T, IL-17RB-KO BxPC3 or SU.86.86 cells; also called HA-IL-17RB; HA-tagged WT IL-17RB; not shown: HA tag, C-terminal
T4 sequence: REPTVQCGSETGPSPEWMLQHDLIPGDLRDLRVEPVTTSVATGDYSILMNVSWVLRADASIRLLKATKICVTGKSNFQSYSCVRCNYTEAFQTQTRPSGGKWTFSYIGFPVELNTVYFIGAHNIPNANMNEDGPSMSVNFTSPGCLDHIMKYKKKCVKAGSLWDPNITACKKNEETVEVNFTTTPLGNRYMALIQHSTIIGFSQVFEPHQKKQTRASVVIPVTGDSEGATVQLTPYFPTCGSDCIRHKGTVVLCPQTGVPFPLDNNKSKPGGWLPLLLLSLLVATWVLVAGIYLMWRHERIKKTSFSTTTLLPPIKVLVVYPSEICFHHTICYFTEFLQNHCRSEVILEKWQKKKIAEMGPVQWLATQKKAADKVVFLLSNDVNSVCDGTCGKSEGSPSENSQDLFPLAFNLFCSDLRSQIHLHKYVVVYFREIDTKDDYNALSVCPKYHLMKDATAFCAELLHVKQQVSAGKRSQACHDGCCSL

Flag-MLK4 = biological target: T5, Flag-MLK4 (human, UniProt Q5TCX8 1-1036, limits assumed); experiment: reciprocal co-IP, 293T cells, rIL-17B (FIG. 5C)
T5 construct: also called Flag-tagged WT MLK4; not shown: Flag tag
T5 sequence (Q5TCX8 whole entry): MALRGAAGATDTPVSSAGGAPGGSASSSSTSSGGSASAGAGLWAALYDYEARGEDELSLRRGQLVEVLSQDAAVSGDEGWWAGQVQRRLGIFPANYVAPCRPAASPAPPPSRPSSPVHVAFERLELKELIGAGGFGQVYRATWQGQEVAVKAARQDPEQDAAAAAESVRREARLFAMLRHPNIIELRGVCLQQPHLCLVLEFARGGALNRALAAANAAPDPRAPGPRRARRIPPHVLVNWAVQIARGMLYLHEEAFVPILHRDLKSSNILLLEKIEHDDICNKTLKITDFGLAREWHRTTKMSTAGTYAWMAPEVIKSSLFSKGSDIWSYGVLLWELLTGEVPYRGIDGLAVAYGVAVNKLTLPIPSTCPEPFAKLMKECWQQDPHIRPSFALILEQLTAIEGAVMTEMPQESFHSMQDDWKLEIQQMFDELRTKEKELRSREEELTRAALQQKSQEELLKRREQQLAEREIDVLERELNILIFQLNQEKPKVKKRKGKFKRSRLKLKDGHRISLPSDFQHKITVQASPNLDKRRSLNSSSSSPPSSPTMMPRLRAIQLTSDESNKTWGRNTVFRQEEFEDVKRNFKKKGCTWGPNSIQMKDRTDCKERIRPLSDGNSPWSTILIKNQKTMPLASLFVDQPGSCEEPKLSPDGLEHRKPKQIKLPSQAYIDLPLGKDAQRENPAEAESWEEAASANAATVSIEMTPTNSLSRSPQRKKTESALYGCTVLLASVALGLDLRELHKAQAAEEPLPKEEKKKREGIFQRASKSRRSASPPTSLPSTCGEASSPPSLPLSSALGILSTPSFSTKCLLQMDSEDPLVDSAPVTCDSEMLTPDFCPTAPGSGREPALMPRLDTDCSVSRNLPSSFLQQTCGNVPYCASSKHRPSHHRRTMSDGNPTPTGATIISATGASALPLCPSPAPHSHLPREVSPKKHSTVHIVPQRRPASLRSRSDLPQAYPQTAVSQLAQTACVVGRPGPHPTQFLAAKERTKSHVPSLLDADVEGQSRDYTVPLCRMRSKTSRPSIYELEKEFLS

[2] = biological target: T6, mixed-lineage kinase 4 (MLK4), endogenous (human, UniProt Q5TCX8 1-1036, limits assumed); experiment: co-IP with anti-HA beads, blot with anti-MLK4, rIL-17B (FIG. 5D)
T6 construct: also called KIAA1804; MAP3K21
T6 sequence (Q5TCX8 whole entry): as above

B1: IL-17RB K470R, Flag-tagged (receptor)
chain: T4 sequence with K453R
notes: also called K470R-mutant IL-17RB; not shown: Flag tag
binding result (TAK1, endogenous): no binding | binding result (ACT1, endogenous): no binding | binding result (TRAF6, endogenous): no binding | binding result [1]: binds

B2: IL-17RB ΔV403˜S416 (Del-3), HA-tagged (receptor)
chain: REPTVQCGSETGPSPEWMLQHDLIPGDLRDLRVEPVTTSVATGDYSILMNVSWVLRADASIRLLKATKICVTGKSNFQSYSCVRCNYTEAFQTQTRPSGGKWTFSYIGFPVELNTVYFIGAHNIPNANMNEDGPSMSVNFTSPGCLDHIMKYKKKCVKAGSLWDPNITACKKNEETVEVNFTTTPLGNRYMALIQHSTIIGFSQVFEPHQKKQTRASVVIPVTGDSEGATVQLTPYFPTCGSDCIRHKGTVVLCPQTGVPFPLDNNKSKPGGWLPLLLLSLLVATWVLVAGIYLMWRHERIKKTSFSTTTLLPPIKVLVVYPSEICFHHTICYFTEFLQNHCRSEVILEKWQKKKIAEMGPVQWLATQKKAADKVVFLLSNDVNSENSQDLFPLAFNLFCSDLRSQIHLHKYVVVYFREIDTKDDYNALSVCPKYHLMKDATAFCAELLHVKQQVSAGKRSQACHDGCCSL
notes: Deletion of the flexible loop; also called Del-3 mutant; not shown: HA tag
binding result (Flag-MLK4): no binding | binding result [2]: no binding
